Test results as given in patent US20170349647A1.

Assays:
[1] = molecular target: recombinant nucleoprotein derived from influenza viruses subtype A H1N1 (Sino Biological, 11675-[change]) (influenza virus type A H1N1)
[2] = molecular target: recombinant nucleoprotein derived from influenza viruses subtype A H3N2 (Sino Biological, 40208-[change]) (influenza virus type A H3N2)

recombinant nucleoprotein derived from influenza viruses subtype A H1N1 (Sino Biological, 11675-[change]) (influenza virus type A H1N1), sequence (P03466 whole entry): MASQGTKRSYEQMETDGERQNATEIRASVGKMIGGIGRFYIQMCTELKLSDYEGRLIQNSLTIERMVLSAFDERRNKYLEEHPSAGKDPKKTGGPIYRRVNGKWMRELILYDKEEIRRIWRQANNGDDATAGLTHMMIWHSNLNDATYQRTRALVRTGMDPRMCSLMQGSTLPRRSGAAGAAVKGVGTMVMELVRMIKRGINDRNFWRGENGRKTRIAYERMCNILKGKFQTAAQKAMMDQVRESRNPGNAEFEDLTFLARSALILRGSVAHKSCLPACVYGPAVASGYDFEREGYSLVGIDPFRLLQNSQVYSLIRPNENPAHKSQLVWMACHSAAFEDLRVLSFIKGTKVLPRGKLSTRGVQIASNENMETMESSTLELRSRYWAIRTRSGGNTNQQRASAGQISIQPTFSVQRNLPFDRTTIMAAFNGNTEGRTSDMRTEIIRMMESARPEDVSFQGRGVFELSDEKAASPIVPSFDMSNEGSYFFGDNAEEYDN

B1: VHH antibody consisting of the amino acid sequence represented by SEQ ID NO: 08 (VHH)
VHH: QVQLVESGGGLVQAGGSLRLSCAASRTIFNPNVMGWYRQAPGKQRELVADISLSGSTNYADSVKGRFTISRDNAKNTMYLQMNSLKPEDTAVYYCNTNAISGAPGRYWGQGTQVTVSS
In the case of B1, the EC50 (read off the curve) [1] is reported as 0.004 µg/mL and the EC50 (read off the curve) [2] is reported as 0.03 µg/mL.
